Drawing on the supplement of paper PMC9233669, this text covers self-aminoacylation for 23 sequences.

Variants at the floor of the assay were thinned out.

One series has as its system biotinyl-Phe-oxazolone. Put plainly: self-aminoacylation, catalytic enhancement (BFO) (fold over background); higher = more active; k-Seq, kA / k0A0; sequences stand for … in GGGAAUGGAUCCACAUCUACGAAUUC…UUCACUGCAGACUUGACGAAGCUG
The essentials: (§1)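 Mutagenized RNA pools with a 21-nt variable region (0.43 μM) were reacted with each biotinyl-aminoacyl-oxazolone at 2–1250 μM for 90 minutes at room temperature, in 50 μL HEPES/NaCl/KCl/MgCl2/CaCl2 buffer containing 5% acetonitrile at pH 6.9–7.0. RNA captured on streptavidin was quantified by triplicate qPCR and by Illumina sequencing. The fraction reacted for each sequence was fit to a pseudo-first-order model with bootstrapping, and catalytic enhancement is the median kA divided by the uncatalyzed rate, taken as the low-activity peak of a bimodal Gaussian fit.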

Another series has as its system biotinyl-Met-oxazolone. Put plainly: self-aminoacylation, catalytic enhancement (BMO) (fold over background); higher = more active; k-Seq, kA / k0A0; sequences stand for … in GGGAAUGGAUCCACAUCUACGAAUUC…UUCACUGCAGACUUGACGAAGCUG
The essentials:
as §1

A further series has as its system biotinyl-Leu-oxazolone. The series is described as follows: self-aminoacylation, catalytic enhancement (BLO) (fold over background); higher = more active; k-Seq, kA / k0A0; sequences stand for … in GGGAAUGGAUCCACAUCUACGAAUUC…UUCACUGCAGACUUGACGAAGCUG
The essentials: as §1

The subject of a further series is biotinyl-Val-oxazolone. The series is described as follows: self-aminoacylation, catalytic enhancement (BVO) (fold over background); higher = more active; k-Seq, kA / k0A0; sequences stand for … in GGGAAUGGAUCCACAUCUACGAAUUC…UUCACUGCAGACUUGACGAAGCUG
The essentials:
as §1

A further series deals with biotinyl-Trp-oxazolone. The series is described as follows: self-aminoacylation, catalytic enhancement (BWO) (fold over background); higher = more active; k-Seq, kA / k0A0; sequences stand for … in GGGAAUGGAUCCACAUCUACGAAUUC…UUCACUGCAGACUUGACGAAGCUG
The essentials:
as §1

A further series concerns biotinyl-Ile-oxazolone. Put plainly: self-aminoacylation, catalytic enhancement (BIO) (fold over background); higher = more active; k-Seq, kA / k0A0; sequences stand for … in GGGAAUGGAUCCACAUCUACGAAUUC…UUCACUGCAGACUUGACGAAGCUG
In a few lines: as §1

In the case of “AUUACCCUAGUCAUAGAGUGA [Fam2.1 aminoacylation ribozyme variant]”, the self-aminoacylation in the series on biotinyl-Phe-oxazolone amounted to 32.7; in the series with biotinyl-Met-oxazolone, 7.98; with biotinyl-Leu-oxazolone it was 7.72; in the series with biotinyl-Val-oxazolone, 3.95; in the series on biotinyl-Trp-oxazolone it was 9.37; in the series with biotinyl-Ile-oxazolone it was 4.22.
Take “AUUCACCUAGGUCCUAGGGUG [Fam2.2 aminoacylation ribozyme variant]”: the self-aminoacylation in the series with biotinyl-Phe-oxazolone stood at 4.72; in the series on biotinyl-Met-oxazolone it was 2.55; in the series on biotinyl-Leu-oxazolone, 4.26; in the series with biotinyl-Val-oxazolone, 1.75; with biotinyl-Trp-oxazolone it was 3.15; in the series on biotinyl-Ile-oxazolone, 2.06.
For “CUUCACCUAGGUAAUCGGGUG [Fam2.2 aminoacylation ribozyme variant]”, the self-aminoacylation in the series with biotinyl-Phe-oxazolone amounted to 1.56; in the series on biotinyl-Met-oxazolone it was 2.65; in the series with biotinyl-Leu-oxazolone, 2.68; in the series on biotinyl-Val-oxazolone, 1.65; in the series with biotinyl-Trp-oxazolone it was 2.7; with biotinyl-Ile-oxazolone it was 1.59.
Take “AAGUUUGGUAAUAGGCGCAAG [Fam3.1 aminoacylation ribozyme variant]”: the self-aminoacylation with biotinyl-Phe-oxazolone is 0.618; in the series with biotinyl-Met-oxazolone, 0.705; in the series on biotinyl-Leu-oxazolone, 0.761; with biotinyl-Val-oxazolone, 0.775; in the series with biotinyl-Trp-oxazolone it was 0.712; in the series on biotinyl-Ile-oxazolone it was 0.692.
For the sequence “AUUACACUGGUAAUCGAGUGA [Fam2.1 aminoacylation ribozyme variant]”, the self-aminoacylation in the series with biotinyl-Phe-oxazolone was found to be 30.4; in the series on biotinyl-Met-oxazolone, 7.53; in the series with biotinyl-Leu-oxazolone, 8.16; with biotinyl-Val-oxazolone, 3.38; in the series with biotinyl-Trp-oxazolone it was 8.34; in the series with biotinyl-Ile-oxazolone it was 4.09.
For “CCACACUUCAAGCAAUGGGUU [Fam1B.1 aminoacylation ribozyme variant]”, the self-aminoacylation was 0.91 with biotinyl-Phe-oxazolone; 1.14 in the series on biotinyl-Met-oxazolone; 1.39 in the series on biotinyl-Leu-oxazolone; 1.71 in the series on biotinyl-Val-oxazolone; 1.46 in the series on biotinyl-Trp-oxazolone; 1.22 with biotinyl-Ile-oxazolone.
Regarding “AUUCACCUAGGCCAUCGGUUG [Fam2.2 aminoacylation ribozyme variant]”, the self-aminoacylation in the series with biotinyl-Phe-oxazolone worked out at 8.73; in the series with biotinyl-Met-oxazolone, 1.05; in the series on biotinyl-Leu-oxazolone, 1.32; with biotinyl-Val-oxazolone, 1.04; with biotinyl-Trp-oxazolone, 0.695; in the series with biotinyl-Ile-oxazolone, 1.08.
As for “AAGUUUGCUAAUAGUCCGAAG [Fam3.1 aminoacylation ribozyme variant]”, the self-aminoacylation came to 4.75 with biotinyl-Phe-oxazolone; 1.02 in the series on biotinyl-Met-oxazolone; 0.863 in the series with biotinyl-Leu-oxazolone; 1.02 in the series with biotinyl-Val-oxazolone; 1.89 in the series with biotinyl-Trp-oxazolone; 1.1 in the series with biotinyl-Ile-oxazolone.
For “AUUCCCCUGGGUCAUCGGGUG [Fam2.2 aminoacylation ribozyme variant]”, the self-aminoacylation turned out to be 107 with biotinyl-Phe-oxazolone; 12.2 in the series with biotinyl-Met-oxazolone; 16.9 in the series with biotinyl-Leu-oxazolone; 9.66 in the series on biotinyl-Val-oxazolone; 13.3 with biotinyl-Trp-oxazolone; 8.62 in the series with biotinyl-Ile-oxazolone.
Regarding “AUCCACCUAGGUCAUCGGGUA [Fam2.2 aminoacylation ribozyme variant]”, the self-aminoacylation is 275 with biotinyl-Phe-oxazolone; 39.4 in the series on biotinyl-Met-oxazolone; 53.2 in the series on biotinyl-Leu-oxazolone; 18.1 with biotinyl-Val-oxazolone; 26.5 in the series on biotinyl-Trp-oxazolone; 20.2 with biotinyl-Ile-oxazolone.
For “CUACUACAUACAAUCGGUCUG [Fam1A.1 aminoacylation ribozyme variant]”, the self-aminoacylation stood at 0.703 in the series with biotinyl-Phe-oxazolone; 0.901 with biotinyl-Met-oxazolone; 0.641 with biotinyl-Leu-oxazolone; 0.782 in the series on biotinyl-Val-oxazolone; 0.58 in the series on biotinyl-Trp-oxazolone; 0.812 in the series on biotinyl-Ile-oxazolone.
As for “CCACACGUCUAGCAAUCGGUC [Fam1B.1 aminoacylation ribozyme variant]”, the self-aminoacylation with biotinyl-Phe-oxazolone was found to be 0.972; in the series with biotinyl-Met-oxazolone it was 0.9; with biotinyl-Leu-oxazolone, 0.937; with biotinyl-Val-oxazolone, 1.15; in the series with biotinyl-Trp-oxazolone, 0.768; with biotinyl-Ile-oxazolone, 1.01.
Turning to “AUUACCCUCGUCAUCGACUGA [Fam2.1 aminoacylation ribozyme variant]”, the self-aminoacylation in the series with biotinyl-Phe-oxazolone worked out at 0.811; in the series with biotinyl-Met-oxazolone, 0.868; with biotinyl-Leu-oxazolone, 0.644; with biotinyl-Val-oxazolone, 0.877; in the series with biotinyl-Trp-oxazolone it was 0.555; in the series on biotinyl-Ile-oxazolone, 0.735.
Turning to “CCACACUUCAAGCCCUCGGUC [Fam1B.1 aminoacylation ribozyme variant]”, the self-aminoacylation with biotinyl-Phe-oxazolone was determined as 5.16; in the series on biotinyl-Met-oxazolone, 2.01; in the series on biotinyl-Leu-oxazolone it was 1.64; in the series with biotinyl-Val-oxazolone, 1.58; in the series on biotinyl-Trp-oxazolone it was 1.92; in the series with biotinyl-Ile-oxazolone it was 1.4.
As to “AUUCGGCUAGGUCAUCGGGUG [Fam2.2 aminoacylation ribozyme variant]”, the self-aminoacylation with biotinyl-Phe-oxazolone came out at 24.4; with biotinyl-Met-oxazolone, 3.87; in the series on biotinyl-Leu-oxazolone, 4.58; with biotinyl-Val-oxazolone, 3.7; in the series with biotinyl-Trp-oxazolone, 4.77; with biotinyl-Ile-oxazolone, 3.06.
In the case of “AUUCAUCUAGGUCAUCCGGUG [Fam2.2 aminoacylation ribozyme variant]”, the self-aminoacylation with biotinyl-Phe-oxazolone worked out at 48.9; in the series with biotinyl-Met-oxazolone, 6.61; in the series with biotinyl-Leu-oxazolone it was 8.6; with biotinyl-Val-oxazolone it was 4.65; in the series on biotinyl-Trp-oxazolone, 6.87; in the series on biotinyl-Ile-oxazolone, 4.53.
Turning to “AUUCAUCGAGGUCAUCGGGUG [Fam2.2 aminoacylation ribozyme variant]”, the self-aminoacylation with biotinyl-Phe-oxazolone is 83.3; in the series with biotinyl-Met-oxazolone it was 12; in the series on biotinyl-Leu-oxazolone, 14.9; with biotinyl-Val-oxazolone it was 6.97; with biotinyl-Trp-oxazolone, 10.1; with biotinyl-Ile-oxazolone it was 7.05.
Take “AUUAUCCUGGUCAUCGACUGA [Fam2.1 aminoacylation ribozyme variant]”: the self-aminoacylation was found to be 0.418 in the series with biotinyl-Phe-oxazolone; 0.65 in the series with biotinyl-Met-oxazolone; 0.941 in the series on biotinyl-Leu-oxazolone; 0.785 in the series on biotinyl-Val-oxazolone; 0.498 in the series on biotinyl-Trp-oxazolone; 0.875 with biotinyl-Ile-oxazolone.
In the case of “AUUCACCUAGGUUAACGGGUG [Fam2.2 aminoacylation ribozyme variant]”, the self-aminoacylation in the series with biotinyl-Phe-oxazolone worked out at 24.8; in the series on biotinyl-Met-oxazolone, 2.55; with biotinyl-Leu-oxazolone it was 3.22; in the series with biotinyl-Val-oxazolone, 2.1; with biotinyl-Trp-oxazolone it was 2.83; in the series on biotinyl-Ile-oxazolone it was 2.
In the case of “AUUCACCUAGGUCUUAGGGUG [Fam2.2 aminoacylation ribozyme variant]”, the self-aminoacylation in the series with biotinyl-Phe-oxazolone came to 32.2; in the series on biotinyl-Met-oxazolone it was 5.1; in the series with biotinyl-Leu-oxazolone it was 7.06; in the series on biotinyl-Val-oxazolone, 2.85; in the series with biotinyl-Trp-oxazolone it was 4.24; in the series with biotinyl-Ile-oxazolone, 3.08.
Regarding “GCACACUUCAGGCAAUCGGUC [Fam1B.1 aminoacylation ribozyme variant]”, the self-aminoacylation was 3.06 in the series on biotinyl-Phe-oxazolone; 2.04 with biotinyl-Met-oxazolone; 1.67 with biotinyl-Leu-oxazolone; 2.42 with biotinyl-Val-oxazolone; 2.39 in the series on biotinyl-Trp-oxazolone; 2.21 in the series on biotinyl-Ile-oxazolone.
Take “AUUACCCUAGGUCAUCGGGUG [Fam2.2 aminoacylation ribozyme variant]”: the self-aminoacylation with biotinyl-Phe-oxazolone amounted to 51.7; in the series with biotinyl-Met-oxazolone it was 8.02; in the series on biotinyl-Leu-oxazolone it was 11.9; in the series with biotinyl-Val-oxazolone, 5.13; with biotinyl-Trp-oxazolone, 8.1; with biotinyl-Ile-oxazolone, 5.23.
Take “CCACACUUCAAGCCAUCGGGC [Fam1B.1 aminoacylation ribozyme variant]”: the self-aminoacylation was 1.42 with biotinyl-Phe-oxazolone; 1.85 with biotinyl-Met-oxazolone; 4.06 in the series on biotinyl-Leu-oxazolone; 3.22 in the series on biotinyl-Val-oxazolone; 2.1 in the series on biotinyl-Trp-oxazolone; 2.49 with biotinyl-Ile-oxazolone.
